Test results as given in the supplement of paper PMC9233669.
This sample holds only a part of the variants without activity.

Columns and labels:
biotinyl-Leu-oxazolone = assay: self-aminoacylation, catalytic enhancement (BLO) (fold over background); higher = more active; k-Seq, kA / k0A0; sequences stand for … in GGGAAUGGAUCCACAUCUACGAAUUC…UUCACUGCAGACUUGACGAAGCUG
Summary of the method: (§1)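 Mutagenized RNA pools with a 21-nt variable region (0.43 μM) reacted with each biotinyl-aminoacyl-oxazolone at 2–1250 μM. Reactions ran in 50 μL HEPES/NaCl/KCl/MgCl2/CaCl2 buffer with 5% acetonitrile, pH 6.9–7.0, for 90 minutes at room temperature. Streptavidin-captured RNA was quantified by triplicate qPCR and Illumina sequencing, and per-sequence fraction reacted was fit to a pseudo-first-order model with 1000 bootstraps. Catalytic enhancement is median kA divided by the uncatalyzed rate, the low-activity peak of a bimodal Gaussian fit.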

biotinyl-Ile-oxazolone = assay: self-aminoacylation, catalytic enhancement (BIO) (fold over background); higher = more active; k-Seq, kA / k0A0; sequences stand for … in GGGAAUGGAUCCACAUCUACGAAUUC…UUCACUGCAGACUUGACGAAGCUG
Summary of the method: as §1

biotinyl-Phe-oxazolone = assay: self-aminoacylation, catalytic enhancement (BFO) (fold over background); higher = more active; k-Seq, kA / k0A0; sequences stand for … in GGGAAUGGAUCCACAUCUACGAAUUC…UUCACUGCAGACUUGACGAAGCUG
Summary of the method: as §1

biotinyl-Met-oxazolone = assay: self-aminoacylation, catalytic enhancement (BMO) (fold over background); higher = more active; k-Seq, kA / k0A0; sequences stand for … in GGGAAUGGAUCCACAUCUACGAAUUC…UUCACUGCAGACUUGACGAAGCUG
Summary of the method: as §1

biotinyl-Trp-oxazolone = assay: self-aminoacylation, catalytic enhancement (BWO) (fold over background); higher = more active; k-Seq, kA / k0A0; sequences stand for … in GGGAAUGGAUCCACAUCUACGAAUUC…UUCACUGCAGACUUGACGAAGCUG
Summary of the method: as §1

biotinyl-Val-oxazolone = assay: self-aminoacylation, catalytic enhancement (BVO) (fold over background); higher = more active; k-Seq, kA / k0A0; sequences stand for … in GGGAAUGGAUCCACAUCUACGAAUUC…UUCACUGCAGACUUGACGAAGCUG
Summary of the method: as §1

| Sequence | self-aminoacylation (biotinyl-Leu-oxazolone) | self-aminoacylation (biotinyl-Ile-oxazolone) | self-aminoacylation (biotinyl-Phe-oxazolone) | self-aminoacylation (biotinyl-Met-oxazolone) | self-aminoacylation (biotinyl-Trp-oxazolone) | self-aminoacylation (biotinyl-Val-oxazolone) |
| --- | --- | --- | --- | --- | --- | --- |
| AAGGUUGGUAAUAGUCGCAAG [Fam3.1 aminoacylation ribozyme variant] | 1.55 | 1.48 | 2.09 | 1.59 | 2.15 | 1.38 |
| AUUACCGUGGACAUCGAGUGA [Fam2.1 aminoacylation ribozyme variant] | 3.92 | 2.29 | 3.62 | 3.47 | 5.62 | 2.68 |
| AUUACGGUGGUCAUCGAGUGA [Fam2.1 aminoacylation ribozyme variant] | 2.56 | 2.44 | 5.75 | 2.68 | 3.24 | 2.09 |
| AUUACCCCGGUCAGCGAGUGA [Fam2.1 aminoacylation ribozyme variant] | 4.92 | 3.32 | 31.4 | 4.82 | 5.45 | 3.28 |
| AAUCACAUAGGUCAUCGGGUG [Fam2.2 aminoacylation ribozyme variant] | 7.16 | 4.88 | 49.2 | 7.73 | 6.45 | 4.18 |
| AAGUUUGCUAAUAGUCACAAA [Fam3.1 aminoacylation ribozyme variant] | 1.22 | 1.21 | 1.34 | 1.32 | 1.15 | 1.09 |
| CAACACUGCAAGCAAUCGGUC [Fam1B.1 aminoacylation ribozyme variant] | 1.46 | 1.12 | 0.892 | 1.3 | 0.788 | 1.24 |
| CCACACUUCAUGGAAUCGGUC [Fam1B.1 aminoacylation ribozyme variant] | 0.946 | 0.858 | 0.928 | 0.836 | 0.598 | 1.1 |
| AUUCACCGAGGUCAUGGGGUG [Fam2.2 aminoacylation ribozyme variant] | 14.7 | 6.15 | 86.3 | 11.4 | 11.4 | 6.55 |
| AUUCCCCUAGGACAUCGGGUG [Fam2.2 aminoacylation ribozyme variant] | 9.47 | 6.12 | 44.8 | 7.14 | 8.25 | 6.82 |
| CCACACUUCAAGCAUUGGGUC [Fam1B.1 aminoacylation ribozyme variant] | 0.83 | 1.04 | 0.918 | 1.03 | 0.956 | 1.4 |
| AUACUUCAAACAAUUGGUCUG [Fam1A.1 aminoacylation ribozyme variant] | 0.956 | 1.19 | 1.16 | 0.903 | 1.16 | 1.04 |
| AAGUCUGCUAAUAGUAGCAAG [Fam3.1 aminoacylation ribozyme variant] | 1.44 | 0.968 | 1.42 | 1.24 | 1.67 | 1.08 |
| AAUCACCUAGGUCAUCGGUUG [Fam2.2 aminoacylation ribozyme variant] | 1.66 | 1.44 | 5.05 | 1.74 | 1.69 | 1.29 |
| AUUCACCUGGGUGAUCGGGUG [Fam2.2 aminoacylation ribozyme variant] | 4.89 | 3.9 | 24.1 | 4.39 | 6.7 | 4.45 |
| AUUCAGCUAGGUCAUCGGGGG [Fam2.2 aminoacylation ribozyme variant] | 3.48 | 3.18 | 16.7 | 2.69 | 2.72 | 2.23 |
| CCACACUUCAAGCUAUCGGAC [Fam1B.1 aminoacylation ribozyme variant] | 0.681 | 0.982 | 0.941 | 0.654 | 0.582 | 1.01 |
| GUUCACCUAGGUCAUCGGGUA [Fam2.2 aminoacylation ribozyme variant] | 68.3 | 24.6 | 381 | 50.6 | 33.1 | 22.6 |
| AGUACCCUCGUCAUCGAGUGA [Fam2.1 aminoacylation ribozyme variant] | 3.97 | 2.37 | 18.8 | 3.19 | 3.06 | 2.08 |
| CUACUUCUAACAAUCGGUCGG [Fam1A.1 aminoacylation ribozyme variant] | 0.978 | 0.843 | 0.725 | 0.626 | 0.653 | 0.728 |
| AUUCACCAAGGUCAUCCGGUG [Fam2.2 aminoacylation ribozyme variant] | 11.4 | 5.51 | 59.6 | 7.8 | 7.89 | 4.96 |
| AUUCAUCUAGGUCAUCGGAUG [Fam2.2 aminoacylation ribozyme variant] | 0.802 | 0.962 | 0.576 | 0.879 | 0.846 | 1.04 |
| ACUCACCUCGGUCAUCGGGUG [Fam2.2 aminoacylation ribozyme variant] | 5.87 | 4.08 | 34.4 | 4.36 | 6.06 | 4.77 |
| CUACGUCAGACAAUCGGUCUG [Fam1A.1 aminoacylation ribozyme variant] | 1.28 | 1.61 | 1.67 | 1.86 | 0.99 | 1.42 |
| CAGUGUGCUAAUAGUCGCAAG [Fam3.1 aminoacylation ribozyme variant] | 1.46 | 1.51 | 1.76 | 1.58 | 1.59 | 1.46 |
| CCACACUUCAAGCAAUCGACC [Fam1B.1 aminoacylation ribozyme variant] | 0.399 | 0.623 | 1.25 | 0.518 | 0.447 | 0.751 |

| Sequence | self-aminoacylation (biotinyl-Leu-oxazolone) | self-aminoacylation (biotinyl-Ile-oxazolone) | self-aminoacylation (biotinyl-Phe-oxazolone) | self-aminoacylation (biotinyl-Met-oxazolone) | self-aminoacylation (biotinyl-Trp-oxazolone) | self-aminoacylation (biotinyl-Val-oxazolone) |
| --- | --- | --- | --- | --- | --- | --- |
| CUAGUUCAAACACUCGGUCUG [Fam1A.1 aminoacylation ribozyme variant] | 1.48 | 1.35 | 5.58 | 1.46 | 1.04 | 1.31 |
| CUACUUCAACGAAUCGGUCUG [Fam1A.1 aminoacylation ribozyme variant] | 1.02 | 0.847 | 4.58 | 0.753 | 3.92 | 0.833 |
| AAGUUUUCUAAUAGUAGCAAG [Fam3.1 aminoacylation ribozyme variant] | 1.33 | 1.5 | 2.5 | 1.29 | 1.8 | 1.34 |
| CUACUUCAAAGAAUCGGUCUU [Fam1A.1 aminoacylation ribozyme variant] | 1.14 | 1.29 | 2.46 | 0.926 | 2.13 | 1.06 |
| AAGUUUUCUAAUAGUCGGAAG [Fam3.1 aminoacylation ribozyme variant] | 1.14 | 1.44 | 1.99 | 1.25 | 1.21 | 1.31 |
| AUCACCUUGGUCAUCGAGUGA [Fam2.1 aminoacylation ribozyme variant] | 6.86 | 3.39 | 5.13 | 5.76 | 7.19 | 3.35 |
| AAGUUUCCUAAUAGUCGCAAG [Fam3.1 aminoacylation ribozyme variant] | 1.42 | 1.57 | 2.47 | 1.34 | 1.62 | 1.36 |
| AAGUUUGGUAAUAGUCGCAGG [Fam3.1 aminoacylation ribozyme variant] | 1.7 | 1.47 | 2.19 | 1.39 | 2.18 | 1.4 |
| CUACUUCAGACACUCGGUCUG [Fam1A.1 aminoacylation ribozyme variant] | 1.52 | 1.2 | 1.77 | 1.49 | 1.03 | 1.54 |
| AUUCACCAAGGUCAUCGGCUG [Fam2.2 aminoacylation ribozyme variant] | 2.66 | 2.06 | 8.8 | 2.21 | 1.78 | 1.92 |
| AAGUAUGCUAAUAGUCGAAAG [Fam3.1 aminoacylation ribozyme variant] | 1.31 | 1.48 | 15.7 | 1.7 | 4.62 | 1.21 |
| CCACCCUUCAAGCAAUAGGUC [Fam1B.1 aminoacylation ribozyme variant] | 0.529 | 0.645 | 0.807 | 0.575 | 0.452 | 0.711 |
| AGUCACCUAGGUCAUAGGGUG [Fam2.2 aminoacylation ribozyme variant] | 2.56 | 2.18 | 9.22 | 3.12 | 2.56 | 2.17 |
| AUUACCCUGGUCAUAGAGUCA [Fam2.1 aminoacylation ribozyme variant] | 0.962 | 0.884 | 0.531 | 0.82 | 0.529 | 0.974 |
| CUACUUCAAAAAAUCGGUUUG [Fam1A.1 aminoacylation ribozyme variant] | 0.84 | 1.03 | 9.83 | 0.73 | 6.33 | 0.695 |
| AUUUUUGCUAAUAGUCGCAAG [Fam3.1 aminoacylation ribozyme variant] | 0.994 | 1.37 | 1.71 | 1.07 | 1.02 | 1.02 |
| AUUCACCUUGGUCAUCGGGUA [Fam2.2 aminoacylation ribozyme variant] | 2.64 | 2.5 | 5.21 | 3.09 | 2.75 | 2.98 |
| AUUACCCUGCCCAUCGAGUGA [Fam2.1 aminoacylation ribozyme variant] | 5.53 | 2.94 | 38.9 | 5.7 | 6.52 | 3.23 |
| AUUACCCUGGUCAUCUAGUCA [Fam2.1 aminoacylation ribozyme variant] | 0.616 | 0.753 | 0.712 | 0.578 | 0.455 | 0.827 |
| AUGCUUCAAACAAUCGGUCUG [Fam1A.1 aminoacylation ribozyme variant] | 3.36 | 2.25 | 129 | 2.1 | 50.6 | 1.99 |
| AUUCACAUCGGUCAUCGGGUG [Fam2.2 aminoacylation ribozyme variant] | 9.09 | 4.36 | 57.5 | 8.09 | 5.93 | 4.81 |
| AUUCGCUUAGGUCAUCGGGUG [Fam2.2 aminoacylation ribozyme variant] | 8 | 4.11 | 52.5 | 7.02 | 6.47 | 4.24 |
| AUUCAGCUAGGCCAUCGGGUG [Fam2.2 aminoacylation ribozyme variant] | 12.4 | 6.95 | 72.1 | 10.1 | 10.1 | 6.97 |
| ACUACCCUGGUCAUCGACUGA [Fam2.1 aminoacylation ribozyme variant] | 0.769 | 0.918 | 3.44 | 1.09 | 0.51 | 0.854 |
| AUUACUCUGGUCAUCGCGUGA [Fam2.1 aminoacylation ribozyme variant] | 17.7 | 8.13 | 117 | 16.4 | 18.3 | 8.12 |
